Drawing on patent publication US20190300590A1, this text covers IC50 and pStat3 HTRF IC50 for 20 substances.

Where only a bound is given, the exact number is not on record here.

Broadly, the IC50 is the concentration at which inhibition is half-maximal. A low value points to greater potency in that assay.

IL-23R on human cells (IL-23R-expressing DB cells; human NK cells) (human), sequence (Q5VWK5 24-629): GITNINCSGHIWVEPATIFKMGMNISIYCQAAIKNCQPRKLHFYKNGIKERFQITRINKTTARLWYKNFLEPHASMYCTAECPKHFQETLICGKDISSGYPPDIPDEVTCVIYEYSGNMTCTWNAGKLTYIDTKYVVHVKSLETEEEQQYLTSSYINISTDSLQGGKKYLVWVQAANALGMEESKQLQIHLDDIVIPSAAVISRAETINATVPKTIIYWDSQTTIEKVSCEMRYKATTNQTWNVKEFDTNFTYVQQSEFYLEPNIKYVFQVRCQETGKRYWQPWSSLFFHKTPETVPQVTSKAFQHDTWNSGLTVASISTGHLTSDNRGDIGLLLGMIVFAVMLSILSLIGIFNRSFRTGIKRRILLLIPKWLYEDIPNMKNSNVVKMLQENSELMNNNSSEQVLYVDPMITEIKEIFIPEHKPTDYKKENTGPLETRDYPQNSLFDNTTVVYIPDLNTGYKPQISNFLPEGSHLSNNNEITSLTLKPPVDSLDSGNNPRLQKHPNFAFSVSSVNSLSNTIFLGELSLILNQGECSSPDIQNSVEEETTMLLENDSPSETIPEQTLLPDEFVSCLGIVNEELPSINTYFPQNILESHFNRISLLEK

The first experiment has as its target Rat IL-23R_huFC (rat). Put plainly: rat ELISA vs IL-23.
“Ac-Cyclo-[[Abu]-QTWQC]-[Phe[4-(2-aminoethoxy)]]-[2-Nal]-[Acbc]-ENN-NH2 (peptide)” yielded an IC50 below 10 nM.

“Ac-Cyclo-[[Abu]-QTWQC]-[Phe[4-(2-aminoethoxy)]]-[2-Nal]-[Achc]-ENN-NH2 (peptide)” displayed an IC50 below 10 nM.

Substance “Ac-Cyclo-[[Abu]-QTWQC]-[Phe[4-(2-aminoethoxy)]]-[2-Nal]-[Acvc]-ENN-NH2 (peptide)” came in with an IC50 below 10 nM.

Another experiment concerns the target IL-23R on human cells (IL-23R-expressing DB cells; human NK cells) (human) (UniProt Q5VWK5). Put plainly: cell-based or functional assay.
As to “Alexa488-PEG4 through [D-Arg]: [D-Arg]-Cyclo-[[Abu]-QTWQC]-[Phe(4-2ae)]-[2-Nal]-[THP]-ENN-NH2 (peptide)”, the pStat3 HTRF IC50 is below 0.01 µM.

Another experiment addresses IL23R_huFC (human) (UniProt Q5VWK5). In words: Human IL23R/IL23 ELISA.
Target sequence in this assay (Q5VWK5 24-353): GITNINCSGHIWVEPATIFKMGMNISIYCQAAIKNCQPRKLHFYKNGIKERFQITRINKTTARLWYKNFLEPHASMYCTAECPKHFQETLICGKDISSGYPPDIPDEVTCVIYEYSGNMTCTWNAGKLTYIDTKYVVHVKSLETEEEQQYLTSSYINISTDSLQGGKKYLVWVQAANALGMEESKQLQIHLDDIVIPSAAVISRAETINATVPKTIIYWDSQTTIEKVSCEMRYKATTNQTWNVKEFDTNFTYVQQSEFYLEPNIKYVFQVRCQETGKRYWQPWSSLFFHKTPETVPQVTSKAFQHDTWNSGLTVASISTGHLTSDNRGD
“Ac-Cyclo-[[Abu]-QTWQC]-[Phe(4-2ae)]-[2-Nal]-[THP]-EDN-OH (peptide)”: the IC50 fell in the range of 10 to 100 nM.

With “Ac-[D-Arg]-Cyclo-[Abu-ETWEC]-[Phe(4-2ae)]-[2-Nal]-[THP]-ENN-NH2 (peptide)”, the IC50 is 1 to 10 nM.

“Ac-[D-Arg]-Cyclo-[[Abu]-ETWQC]-[Phe(4-2ae)]-[2-Nal]-[THP]-EDN-NH2 (peptide)” returned an IC50 of 10 to 100 nM.

The substance “Ac-[D-Arg]-Cyclo-[[Abu]-ETWQC]-[Phe(4-2ae)]-[2-Nal]-[THP]-ENN-NH2 (peptide)” showed an IC50 of 1 to 10 nM.

In the case of “Ac-[D-Arg]-Cyclo-[[Abu]-ETWQC]-[Phe(4-2ae)]-[2-Nal]-[Tetrahydropyran-A]-END-NH2 (peptide)”, the IC50 was 1 to 10 nM.

The substance “Ac-[D-Arg]-Cyclo-[[Abu]-QTWEC]-[Phe(4-2ae)]-[2-Nal]-[THP]-EDN-NH2 (peptide)” registered an IC50 of 10 to 100 nM.

The substance “Ac-[D-Arg]-Cyclo-[[Abu]-QTWEC]-[Phe(4-2ae)]-[2-Nal]-[THP]-END-NH2 (peptide)” came in with an IC50 of 1 to 10 nM.

Take “Ac-[D-Arg]-Cyclo-[[Abu]-QTWEC]-[Phe(4-2ae)]-[2-Nal]-[THP]-ENN-NH2 (peptide)”: the concentration for half-maximal inhibition (IC50) was in the range of 1 to 10 nM.

Take “Ac-[D-Arg]-Cyclo-[[Abu]-QTWEC]-[Phe(4-2ae)]-[2-Nal]-[THP]-ENN-OH (peptide)”: the IC50 was in the range of 1 to 10 nM.

For “Ac-[D-Arg]-Cyclo-[[Abu]-QTWOC]-[Phe(4-2ae)]-[2-Nal]-[THP]]-END-NH2 (peptide)”, the IC50 lay within 1 to 10 nM.

In turn, “Ac-[D-Arg]-Cyclo-[[Abu]-QTWQC]-[Phe(4-2ae)]-[2-Nal]-[THP]-EDD-NH2 (peptide)” yielded an IC50 of 10 to 100 nM.

“Ac-[D-Arg]-Cyclo-[[Abu]-QTWQC]-[Phe(4-2ae)]-[2-Nal]-[THP]-EDN-NH2 (peptide)” showed an IC50 of 10 to 100 nM.

Take “Ac-[D-Arg]-Cyclo-[[Abu]-QTWQC]-[Phe(4-2ae)]-[2-Nal]-[THP]-END-OH (peptide)”: the IC50 lay in the range of 10 to 100 nM.

Take “Ac-[D-Arg]-Cyclo-[[Abu]ETWQC]-[Phe(4-2ae)]-[2-Nal]-[THP]-ENN-OH (peptide)”: the IC50 was 1 to 10 nM.

The target is the same in the next experiment. In words: IL23-IL23R competitive binding ELISA. On the technique in general: ELISA stands for enzyme-linked immunosorbent assay.
Target sequence in this assay (Q5VWK5 24-353 limits assumed): as the sequence (Q5VWK5 24-353) above
Substance “[Ac-[Pen]-QTWQ-[Pen]-[Phe[4-(2-aminoethoxy)]-[2-Nal]-[Aib]-[Lys(Ac)]-NQ-NH2]2DIG (peptide)” returned an IC50 of 25 to 100 nM.

The substance “[Ac-[Pen]-QTWQ-[Pen]-[Phe[4-(2-aminoethoxy)]-[2-Nal]-[Aib]-[Lys(Ac)]-NQ-NH2]2PEG25 (peptide)” returned a 50% inhibitory concentration (IC50) of 10 to 25 nM.
